This experiment has as its target tetanus toxoid (RIT, Smith Kline Beecham) (Clostridium tetani, UniProt P04958 2-1315). Kind of experiment: ELISA by the procedure of Friguet et al.

Sequence of tetanus toxoid (RIT, Smith Kline Beecham) (P04958 2-457 limits assumed, chain 1 of 2): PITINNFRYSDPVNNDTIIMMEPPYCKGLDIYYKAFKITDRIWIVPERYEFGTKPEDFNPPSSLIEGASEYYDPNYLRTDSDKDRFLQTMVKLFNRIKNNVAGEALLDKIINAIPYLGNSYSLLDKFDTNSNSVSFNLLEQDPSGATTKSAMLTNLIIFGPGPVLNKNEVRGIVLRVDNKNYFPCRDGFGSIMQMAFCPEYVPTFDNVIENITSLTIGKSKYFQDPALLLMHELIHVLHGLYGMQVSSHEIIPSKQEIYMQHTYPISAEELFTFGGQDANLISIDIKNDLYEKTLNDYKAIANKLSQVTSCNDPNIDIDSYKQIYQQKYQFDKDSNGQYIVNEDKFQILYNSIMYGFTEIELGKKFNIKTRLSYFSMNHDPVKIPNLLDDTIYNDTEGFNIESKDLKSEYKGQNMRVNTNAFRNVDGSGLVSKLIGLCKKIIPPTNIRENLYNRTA
Sequence of tetanus toxoid (RIT, Smith Kline Beecham) (P04958 458-1315 limits assumed, chain 2 of 2): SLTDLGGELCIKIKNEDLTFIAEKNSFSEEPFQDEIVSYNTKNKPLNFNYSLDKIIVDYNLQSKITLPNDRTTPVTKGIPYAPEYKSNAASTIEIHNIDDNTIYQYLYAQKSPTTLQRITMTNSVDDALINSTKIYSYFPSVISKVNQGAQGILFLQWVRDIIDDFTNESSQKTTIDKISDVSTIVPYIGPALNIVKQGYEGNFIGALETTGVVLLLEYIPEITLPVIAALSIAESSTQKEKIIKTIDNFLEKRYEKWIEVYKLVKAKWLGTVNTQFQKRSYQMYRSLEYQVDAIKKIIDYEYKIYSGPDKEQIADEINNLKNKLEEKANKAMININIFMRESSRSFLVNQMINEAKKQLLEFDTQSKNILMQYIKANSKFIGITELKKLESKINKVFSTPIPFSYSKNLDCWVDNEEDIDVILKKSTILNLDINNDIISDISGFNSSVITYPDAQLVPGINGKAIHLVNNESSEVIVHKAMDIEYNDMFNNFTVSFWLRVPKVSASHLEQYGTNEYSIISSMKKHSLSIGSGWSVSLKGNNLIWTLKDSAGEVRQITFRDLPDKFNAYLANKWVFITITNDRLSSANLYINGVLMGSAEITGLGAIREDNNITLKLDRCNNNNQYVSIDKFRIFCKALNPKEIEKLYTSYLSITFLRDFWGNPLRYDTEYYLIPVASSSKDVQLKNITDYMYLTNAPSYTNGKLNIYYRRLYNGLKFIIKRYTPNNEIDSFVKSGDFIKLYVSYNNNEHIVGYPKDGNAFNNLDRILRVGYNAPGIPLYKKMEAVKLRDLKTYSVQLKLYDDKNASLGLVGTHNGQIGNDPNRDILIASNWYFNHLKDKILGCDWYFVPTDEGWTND

B1: camel VHH αTT1 (anti-tetanus toxoid) (VHH)
VHH: EVQLQASGGGSVQAGGSLRLSCAASGGQTFDSYAMAWFRQAPGKECELVSSIIGDDNRNYADSVKGRFTISRDNAKNTVYLQMDRLNPEDTAVYYCAQLGSARSAMYCAGQGTQVTVSS
In turn, B1 gave a Ka of 6e+07 M⁻¹.

B2: camel VHH αTT2 (anti-tetanus toxoid) (VHH)
VHH: EVQLQASGGGSVQAGGSLRLSCTAANYAFDSKTVGWFRQVPGKEREGVAGISSGGSTTAYSDSVKGRYTVSLENAKNTVYLLIDNLQPEDTAIYYCAGVSGWRGRQWLLLAETYRFWGQGTQVTVSS
B2 registered a Ka of 2e+07 M⁻¹.

The values are drawn from patent US7655759 (VRIJE UNIVERSITEIT BRUSSEL, dated 2010).
